Residue numbers refer to the chain shown, from its start.
Experiments:
[1] = biological target: SARS-CoV-2 Receptor Binding Domain (RBD) protein (SARS-CoV-2, UniProt P0DTC2 319-541)
[2] = biological target: T1, MERS Receptor Binding Domain (RBD) protein (MERS virus, UniProt K9N5Q8 367-606); test: SPR; clone listed as COV2 only at the 21st table, row 57, column 3
T1 construct: also called Middle East Respiratory Syndrome (MERS) virus
T1 sequence: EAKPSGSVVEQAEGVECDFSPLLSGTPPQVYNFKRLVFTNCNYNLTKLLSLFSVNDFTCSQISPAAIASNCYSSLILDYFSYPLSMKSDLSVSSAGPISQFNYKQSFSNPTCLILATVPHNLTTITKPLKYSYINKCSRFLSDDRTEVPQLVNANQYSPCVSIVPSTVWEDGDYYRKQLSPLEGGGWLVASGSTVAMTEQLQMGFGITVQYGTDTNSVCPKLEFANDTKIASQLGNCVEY

[3] = biological target: T2, SARS-CoV-1 Receptor Binding Domain (RBD) protein (SARS-CoV-1, UniProt P59594 306-527); test: as above
T2 construct: also called SARS1

[4] = biological target: T1, MERS Receptor Binding Domain (RBD) …; test: SPR; clone listed as COV2 only at the 21st table, row 58, column 3
[5] = biological target: T2, SARS-CoV-1 Receptor Binding Domain …; test: as above
[6] = biological target: T1, MERS Receptor Binding Domain (RBD) …; test: SPR; clone listed as COV2 only at the 21st table, row 60, column 3
[7] = biological target: T2, SARS-CoV-1 Receptor Binding Domain …; test: as above
[8] = biological target: T1, MERS Receptor Binding Domain (RBD) …; test: SPR; clone listed as COV2 only at the 21st table, row 12, column 3
[9] = biological target: T2, SARS-CoV-1 Receptor Binding Domain …; test: as above
[10] = biological target: T1, MERS Receptor Binding Domain (RBD) …; test: SPR; clone listed as COV2 only at the 21st table, row 59, column 3
[11] = biological target: T2, SARS-CoV-1 Receptor Binding Domain …; test: as above
[12] = biological target: T1, MERS Receptor Binding Domain (RBD) …; test: SPR; clone listed as COV2 only at the 21st table, row 56, column 3
[13] = biological target: T2, SARS-CoV-1 Receptor Binding Domain …; test: as above
[14] = biological target: T1, MERS Receptor Binding Domain (RBD) …; test: SPR; clone listed as COV2 only at the 21st table, row 4, column 3
[15] = biological target: T2, SARS-CoV-1 Receptor Binding Domain …; test: as above
[16] = biological target: T1, MERS Receptor Binding Domain (RBD) …; test: SPR; clone listed as COV2 only at the 21st table, row 11, column 3
[17] = biological target: T2, SARS-CoV-1 Receptor Binding Domain …; test: as above
[18] = biological target: T1, MERS Receptor Binding Domain (RBD) …; test: SPR; clone listed as COV2 only at the 21st table, row 61, column 3
[19] = biological target: T2, SARS-CoV-1 Receptor Binding Domain …; test: as above
[20] = biological target: T1, MERS Receptor Binding Domain (RBD) …; test: SPR; clone listed as COV2 only at the 21st table, row 13, column 3
[21] = biological target: T2, SARS-CoV-1 Receptor Binding Domain …; test: as above
[22] = biological target: T1, MERS Receptor Binding Domain (RBD) …; test: SPR; clone listed as COV2 only at the 21st table, row 65, column 3
[23] = biological target: T2, SARS-CoV-1 Receptor Binding Domain …; test: as above
[24] = biological target: T1, MERS Receptor Binding Domain (RBD) …; test: SPR; clone listed as COV2 only at the 21st table, row 63, column 3
[25] = biological target: T2, SARS-CoV-1 Receptor Binding Domain …; test: as above
[26] = biological target: T1, MERS Receptor Binding Domain (RBD) …; test: SPR; clone listed as COV2 only at the 21st table, row 64, column 3
[27] = biological target: T2, SARS-CoV-1 Receptor Binding Domain …; test: as above

B1: COVID19_P09_C05 (scFv, V domains shown)
VH: QVQLVQSGAEVKKPGSSVKVSCKASGYSFSDYYIHWVRQAPGQGLEWMGWIDPNSGGTNYAQKFQGRVTITADESTSTAYMELSSLRSEDTAVYYCAGGSGISTPMDVWGQGTLVTVSS
VL: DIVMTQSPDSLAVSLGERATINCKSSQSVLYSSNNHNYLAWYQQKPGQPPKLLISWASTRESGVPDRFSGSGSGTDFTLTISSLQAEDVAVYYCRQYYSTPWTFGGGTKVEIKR
[1]
  Kd: 1.18 nM
  koff: 0.000185 s⁻¹
  kon: 157000 M⁻¹ s⁻¹
[2]
  binding result: no binding (tested: up to 300 nM)
[3]
  binding result: no binding (tested: up to 300 nM)

B2: COVID19_P09_B10 (scFv, V domains shown)
VH: B1 VH with S30T, Y33H, G49A, W50M, D52V, N54R, S55G, G57S, N59T
VL: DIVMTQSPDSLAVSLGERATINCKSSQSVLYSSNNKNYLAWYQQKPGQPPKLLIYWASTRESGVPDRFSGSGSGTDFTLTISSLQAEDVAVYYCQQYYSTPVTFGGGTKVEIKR
[1]
  Kd: 39.7 nM
  koff: 0.00323 s⁻¹
  kon: 81400 M⁻¹ s⁻¹
[4]
  binding result: no binding (tested: up to 300 nM)
[5]
  binding result: no binding (tested: up to 300 nM)

B3: COVID19_P10_A09 (scFv, V domains shown)
VH: B1 VH with S28T, S30T, I51M, D52N, G57N, N59G, K63N, P105A, M106W
VL: DIVMTQSPDSLAVSLGERATIRCTSSLSLQDRSNNKNYLTWYQQKPGQPPKLLIYWASTRESGVPDRFSGSGSGTDFTLTISSLQAEDVAVYYCQQHYSAPLTFGGGTKVEIKR
[1]
  Kd: 20.5 nM
  koff: 0.00112 s⁻¹
  kon: 54800 M⁻¹ s⁻¹
[6]
  binding result: no binding (tested: up to 300 nM)
[7]
  binding result: no binding (tested: up to 300 nM)

B4: COVID19_P22_H10 (scFv, V domains shown)
VH: B1 VH with Y27G, S28G, D31T, Y33W, H35G, M48V, D52N, G57A, N59K
VL: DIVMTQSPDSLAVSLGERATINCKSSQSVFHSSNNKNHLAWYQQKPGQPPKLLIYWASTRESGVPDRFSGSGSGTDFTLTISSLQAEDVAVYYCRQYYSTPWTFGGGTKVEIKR
[1]
  Kd: 7.59 nM
  koff: 0.00057 s⁻¹
  kon: 75000 M⁻¹ s⁻¹
[8]
  binding result: no binding (tested: up to 300 nM)
[9]
  binding result: no binding (tested: up to 300 nM)

B5: COVID19_P21_B01 (scFv, V domains shown)
VH: B1 VH with S28T, D31T, Y33W, H35G
VL: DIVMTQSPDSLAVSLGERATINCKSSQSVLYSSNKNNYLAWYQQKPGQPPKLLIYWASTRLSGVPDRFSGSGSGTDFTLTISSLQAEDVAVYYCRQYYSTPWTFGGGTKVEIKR
[1]
  Kd: 0.91 nM
  koff: 5.7e-05 s⁻¹
  kon: 62400 M⁻¹ s⁻¹
[10]
  binding result: no binding (tested: up to 300 nM)
[11]
  binding result: no binding (tested: up to 300 nM)

B6: COVID19_P10_B10 (scFv, V domains shown)
VH: B1 VH with Y33H, I34V, M48V, W50M, D52I, N54R, S55H, N59A
VL: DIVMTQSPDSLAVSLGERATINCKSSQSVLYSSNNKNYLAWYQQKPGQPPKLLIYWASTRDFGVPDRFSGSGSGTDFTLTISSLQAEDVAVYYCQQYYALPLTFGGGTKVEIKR
[1]
  Kd: 46.2 nM
  koff: 0.014 s⁻¹
  kon: 302000 M⁻¹ s⁻¹
[12]
  binding result: no binding (tested: up to 300 nM)
[13]
  binding result: no binding (tested: up to 300 nM)

B7: COVID19_P22_F04 (scFv, V domains shown)
VH: QVQLVQSGAEVKKPGSSVKVSCKASGGGFITYWIGWVRQAPGQGLEWMGIIYPGDGEARYSQKFQGRVTITADESTSTAYMELSSLRSEDTAVYYCAGGSGISTPMDVWGQGTLVTVSS
VL: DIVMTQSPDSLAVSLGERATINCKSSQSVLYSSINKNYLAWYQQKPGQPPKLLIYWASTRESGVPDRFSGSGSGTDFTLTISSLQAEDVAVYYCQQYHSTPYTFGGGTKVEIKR
[1]
  Kd: 30.6 nM
  koff: 0.0085 s⁻¹
  kon: 280000 M⁻¹ s⁻¹
[14]
  binding result: no binding (tested: up to 300 nM)
[15]
  binding result: no binding (tested: up to 300 nM)

B8: COVID19_P22_F11 (scFv, V domains shown)
VH: B7 VH with G35S, S103I, T104Q
VL: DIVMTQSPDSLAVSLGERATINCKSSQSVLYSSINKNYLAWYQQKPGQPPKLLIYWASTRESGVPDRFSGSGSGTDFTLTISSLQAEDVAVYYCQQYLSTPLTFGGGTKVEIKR
[1]
  Kd: 23.3 nM
  koff: 0.0093 s⁻¹
  kon: 400000 M⁻¹ s⁻¹
[16]
  binding result: no binding (tested: up to 300 nM)
[17]
  binding result: no binding (tested: up to 300 nM)

B9: COVID19_P21_B09 (scFv, V domains shown)
VH: B7 VH with G27Y, G28T, I30T, T31G, Y32H, W33Y, I34M, G35H, G56S
VL: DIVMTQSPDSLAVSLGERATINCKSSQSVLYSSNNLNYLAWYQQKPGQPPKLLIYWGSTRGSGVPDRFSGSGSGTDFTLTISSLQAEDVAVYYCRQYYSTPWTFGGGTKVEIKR
[1]
  Kd: 3.71 nM
  koff: 0.000207 s⁻¹
  kon: 55900 M⁻¹ s⁻¹
[18]
  binding result: no binding (tested: up to 300 nM)
[19]
  binding result: no binding (tested: up to 300 nM)

B10: COVID19_P21_E12 (scFv, V domains shown)
VH: QVQLVQSGAEVKKPGSSVKVSCKASGGTFISYAISWVRQAPGQGLEWMGGIIPTLGTYNYAQKFQGRVTITADESTSTAYMELSSLRSEDTAVYYCAGSWGISTPMDVWGQGTLVTVSS
VL: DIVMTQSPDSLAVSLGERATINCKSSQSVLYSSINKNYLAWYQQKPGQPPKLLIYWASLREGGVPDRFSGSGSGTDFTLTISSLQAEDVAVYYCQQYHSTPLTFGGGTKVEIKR
notes: also called COVID19_P21_El2
[1]
  Kd: 8.82 nM
  koff: 0.000586 s⁻¹
  kon: 66500 M⁻¹ s⁻¹
[20]
  binding result: no binding (tested: up to 300 nM)
[21]
  binding result: no binding (tested: up to 300 nM)

B11: COVID19_P21_H03 (scFv, V domains shown)
VH: QVQLVQSGAEVKKPGSSVKVSCKASGYTFTNYGINWVRQAPGQGLEWMGWMNPYSGNTGYAQKFQGRVTITADESTSTAYMELSSLRSEDTAVYYCAVLSGISTPMDVWGQGTLVTVSS
VL: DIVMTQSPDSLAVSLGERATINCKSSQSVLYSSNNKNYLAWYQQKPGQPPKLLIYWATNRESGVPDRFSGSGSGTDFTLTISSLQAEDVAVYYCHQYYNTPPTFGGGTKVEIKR
[1]
  Kd: 11.6 nM
  koff: 0.00113 s⁻¹
  kon: 97200 M⁻¹ s⁻¹
[22]
  binding result: no binding (tested: up to 300 nM)
[23]
  binding result: no binding (tested: up to 300 nM)

B12: COVID19_P21_B02 (scFv, V domains shown)
VH: B11 VH with Y54N, V98A, L99V
VL: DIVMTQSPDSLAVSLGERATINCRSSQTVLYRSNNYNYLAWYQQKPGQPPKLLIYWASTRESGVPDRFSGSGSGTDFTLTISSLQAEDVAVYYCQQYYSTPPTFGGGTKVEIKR
[1]
  Kd: 45.5 nM
  koff: 0.0127 s⁻¹
  kon: 278000 M⁻¹ s⁻¹
[24]
  binding result: no binding (tested: up to 300 nM)
[25]
  binding result: no binding (tested: up to 300 nM)

B13: COVID19_P21_E04 (scFv, V domains shown)
VH: B11 VH with V37M, Y54N, V98G, L99G
VL: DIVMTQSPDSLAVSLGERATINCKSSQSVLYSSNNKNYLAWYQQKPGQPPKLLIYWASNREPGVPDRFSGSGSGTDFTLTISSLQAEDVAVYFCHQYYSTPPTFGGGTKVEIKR
[1]
  Kd: 2.15 nM
  koff: 0.000588 s⁻¹
  kon: 273000 M⁻¹ s⁻¹
[26]
  binding result: no binding (tested: up to 300 nM)
[27]
  binding result: no binding (tested: up to 300 nM)
